Reference: publication PMC9663175, “Cryo-EM structures reveal the activation and substrate recognition mechanism of human enteropeptidase” (Nature Communications, 2022)

T1: hEP heavy chain (residues 182-784 of human enteropeptidase, after trypsin activation) (human, UniProt P98073 182-784, N-linked glycans)
T1 construct: human enteropeptidase heavy chain of the 182-1019 construct (LDLR, CUB, MAM, CUB2, LDLR2, SRCR domains); C-terminal limit 784 follows from Ile785 as the new N-terminus of the light chain; Stays linked to the light chain by the disulfide Cys772-Cys896; source: HEK293F, transfected, secreted, purified from supernatant (Ni-NTA) as the 182-1019 zymogen, then cleaved with trypsin
T1 sequence (looked up): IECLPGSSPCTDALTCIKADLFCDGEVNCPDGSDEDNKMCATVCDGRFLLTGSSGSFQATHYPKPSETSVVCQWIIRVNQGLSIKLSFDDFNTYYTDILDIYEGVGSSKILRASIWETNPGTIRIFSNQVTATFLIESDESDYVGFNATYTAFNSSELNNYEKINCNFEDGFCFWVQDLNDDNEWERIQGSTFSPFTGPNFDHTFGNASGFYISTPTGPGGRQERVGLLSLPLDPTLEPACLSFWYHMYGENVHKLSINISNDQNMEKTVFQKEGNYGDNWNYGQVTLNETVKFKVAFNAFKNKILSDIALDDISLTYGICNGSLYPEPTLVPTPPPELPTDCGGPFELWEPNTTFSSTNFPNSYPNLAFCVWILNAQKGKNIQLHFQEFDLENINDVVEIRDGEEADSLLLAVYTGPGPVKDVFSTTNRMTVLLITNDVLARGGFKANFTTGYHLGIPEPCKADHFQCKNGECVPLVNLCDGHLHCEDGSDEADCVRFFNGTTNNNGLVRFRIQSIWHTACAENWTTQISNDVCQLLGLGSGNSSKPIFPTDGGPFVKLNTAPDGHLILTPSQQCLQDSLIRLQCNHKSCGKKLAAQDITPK


molecular target: T1, hEP heavy chain (residues 182-784 of …); assay: cryo-EM structure; trypsin-activated two-chain hEP (residues 182-1019), heavy and light chains linked by a disulfide; wild type, catalytic-triad mutant, or wild type incubated with nafamostat; conditions: both partners purified

Binder	binding result
hEP light chain (peptidase domain, residues 785-1019), wild type (domain or fragment, human, UniProt P98073 785-1019, looked up, N-linked glycans, human enteropeptidase light chain, N-terminus Ile785 (IVGG) after trypsin cleavage; Stays linked to the heavy chain by the disulfide Cys772-Cys896; source: HEK293F, transfected, secreted, purified from supernatant (Ni-NTA) as the 182-1019 zymogen, then cleaved with trypsin) IVGGSNAKEGAWPWVVGLYYGGRLLCGASLVSSDWLVSAAHCVYGRNLEPSKWTAILGLHMKSNLTSPQTVPRLIDEIVINPHYNRRRKDNDIAMMHLEFKVNYTDYIQPICLPEENQVFPPGRNCSIAGWGTVVYQGTTANILQEADVPLLSNERCQQQMPEYNITENMICAGYEEGGIDSCQGDSGGPLMCQENNRWFLAGVTSFGYKCALPNRPGVYARVSRFTEWIQSFLH	binds
hEP light chain (residues 785-1019) inhibited by nafamostat (domain or fragment, human, UniProt P98073 785-1019, looked up, Ser971 covalently bound to the reaction product of nafamostat; N-linked glycans, human enteropeptidase light chain, N-terminus Ile785 after trypsin cleavage; Stays linked to the heavy chain by the disulfide Cys772-Cys896) IVGGSNAKEGAWPWVVGLYYGGRLLCGASLVSSDWLVSAAHCVYGRNLEPSKWTAILGLHMKSNLTSPQTVPRLIDEIVINPHYNRRRKDNDIAMMHLEFKVNYTDYIQPICLPEENQVFPPGRNCSIAGWGTVVYQGTTANILQEADVPLLSNERCQQQMPEYNITENMICAGYEEGGIDSCQGDSGGPLMCQENNRWFLAGVTSFGYKCALPNRPGVYARVSRFTEWIQSFLH	binds
hEP^mut light chain (peptidase domain, residues 785-1019, H825A, D876A, S971A) (domain or fragment, human, UniProt P98073 785-1019, looked up, N-linked glycans, human enteropeptidase light chain, N-terminus Ile785 after trypsin cleavage, catalytic triad mutated to Ala; The light chain of m1; also called light chain of hEP^mut) IVGGSNAKEGAWPWVVGLYYGGRLLCGASLVSSDWLVSAAACVYGRNLEPSKWTAILGLHMKSNLTSPQTVPRLIDEIVINPHYNRRRKDNAIAMMHLEFKVNYTDYIQPICLPEENQVFPPGRNCSIAGWGTVVYQGTTANILQEADVPLLSNERCQQQMPEYNITENMICAGYEEGGIDSCQGDAGGPLMCQENNRWFLAGVTSFGYKCALPNRPGVYARVSRFTEWIQSFLH	binds
